Entries after “also recorded” stand apart in the source; their conditions may differ.
Experiments:
[1] = molecular target: T1, BDNF (Homo sapiens, UniProt P23560); experiment: Mouse E17 nodose neuron survival assay, BDNF; assay type: cell-based; details: BDNF 400 pM; antibody up to 200 nM; 48 hours
T1 sequence (P23560 129-247): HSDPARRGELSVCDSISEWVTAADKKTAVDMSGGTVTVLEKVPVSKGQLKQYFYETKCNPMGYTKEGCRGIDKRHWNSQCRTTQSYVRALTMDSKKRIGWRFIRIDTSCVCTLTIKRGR
Description: The ability of antibody E3 to specifically block NGF activity was also evaluated by measurement of the capacity of the antibody to inhibit survival of mouse nodose E17 neurons in the presence of saturating concentrations of BDNF or NT4/5. Survival of nodose neurons is supported by BDNF or NT4/5; therefore, survival of these neurons is a sensitive assay to evaluate the BDNF or NT4/5-blocking ability of the anti-NGF antagonist antibody.
The survival assay was conducted as follows: time mated pregnant Swiss Webster female mice were euthanised by CO2 inhalation. The uterine horns were removed and the embryos (at embryonic day 17 or 18) were extracted and decapitated. The trigeminal and nodose ganglia were dissected and cleaned. The ganglia were then trypsinised, mechanically dissociated and plated at a density of 100-300 cells per well in defined, serum-free medium in 4-well plates (Greiner) coated with poly-L-ornithine and laminin.
E17 nodose neurons were grown either in the absence of added neurotrophic factors (negative control), or with saturating concentrations of BDNF (400 pM) (positive control) or NT4/5 (400 pM) or NGF unrelated growth factor […]. High concentrations of neurotrophins were used, as the goal of this experiment was to test specificity of the antibodies. […]

[2] = test system: moderate to severe pain from osteoarthritis of the knee; experiment: Clinical study, osteoarthritis of the knee: WOMAC 3.1 index; assay type: in vivo, human; details: day 1 to day 28
Source text: Adult males and females (ages between 35 to 65) who were experiencing moderate-to-severe pain from osteoarthritis of the knee, but were in otherwise overall good health were enrolled in the study. During the screening period, patients were required to discontinue arthritis medications such as NSAIDs, cyclooxygenase type-2 (COX-2) inhibitors, and opiates at least 14 days prior to administration of anti-NGF antibody E3. Patients were allowed to use rescue medications of acetaminophen or ibuprofen with some restrictions based on laboratory findings or past medical history. […] Thirty-four patients were admitted to the study and assessed as inpatients for on Study Days -1, 1 and 2. […] The volume for each patient was calculated based on the subject's Day -1 weight and assigned dose level, ranging from 3-6 cc for cohort 1, 10-20 cc for cohort 2, 30-60 cc for cohort 3, and 100 cc for cohort 4 and cohort 5. […] Each domain was scored by determining the means of the VAS scores of the component questions. The total WOMAC 3.1TM was scored by determining the means of the scores from each of the 3 domains. […] Outcome was assessed as change from baseline (pain level during screening period), expressed as pain intensity difference (PID) or summed pain intensity difference (SPID) for different dose levels. […]

B1: E3: humanized, affinity matured anti-NGF antagonist antibody; variable regions SEQ ID NO:1 and 2; human IgG2a (A330P331 to S330S331), kappa (antibody, V domains shown)
VH: QVQLQESGPGLVKPSETLSLTCTVSGFSLIGYDLNWIRQPPGKGLEWIGIIWGDGTTDYNSAVKSRVTISKDTSKNQFSLKLSSVTAADTAVYYCARGGYWYATSYYFDYWGQGTLVTVS
VL: DIQMTQSPSSLSASVGDRVTITCRASQSISNNLNWYQQKPGKAPKLLIYYTSRFHSGVPSRFSGSGSGTDFTFTISSLQPEDIATYYCQQEHTLPYTFGQGTKLEIKRT
modifications: human IgG2a constant (A330S/P331S) and kappa constant missing
For B1, the “survival of E17 nodose neurons promoted by BDNF” value [1] was “had no effect; also recorded: did not inhibit”, the “WOMAC pain, physical function and stiffness score” value ([2]; 100 μg/kg) was “reduced significantly” and the WOMAC score ([2]; single i.v. dose) was “reduced WOMAC score”.
